The labels stand for the following.
B1: TPR 5TU (parent)
chain: GGAUCUUCUCGAUCUAACAAAAAAGACAAAUCUGCCACAAAGCUUGAGAGCAUCUUCGGAUGCAGAGGCGGCAGCCUUCGGUGGCGCGAUAGCGCCAACGUUCUCAACUAUGACACGCAAAACGCGUGCUCCGUUGAAUGGAGUUUAUCAUG

This sample holds only a part of the variants without activity.

Variants of B1 are the subject of this series. The series can be described thus: polymerase ribozyme fitness, log enrichment relative to wild type (log ratio); higher = more active; in vitro selection for triplet polymerase activity. An outline of the steps:
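To select mutant libraries of each subunit of a heterodimeric triplet polymerase ribozyme, built by PCR and transcribed, each was annealed with a biotinylated primer, partner subunit and triplets, then incubated frozen at −7 °C. Extended constructs were gel-excised, captured on streptavidin beads and amplified by RT-PCR, in one round carried out in triplicate. Illumina sequencing of input and output libraries kept genotypes with ≥10 input reads and ≥1 read per output. Fitness is the base-2 logarithm of genotype enrichment relative to wild-type enrichment, from inverse-variance-weighted replicate averages.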
As for GGAUCUUCUCGAUCUAACAAAAAAGCCAAAUCUGCCACAAAGCUUGAGAGCAUCUUCGGUUGCAGAGGCGGCAGCCUUCGGUGGCGCGAUAGCGCCAACGUUCUCACCUAUGACGCGCAAAACGCGUGCUCCGUUGAAUGGAGUUUAUCAUG [A26C A60U A107C A115G], the “polymerase ribozyme fitness (log ratio)” value was ≤ -4.2.

As to GGAUCUUCUCGAUCUAACAAAAAAGCCAAAUCUGCGACAAAGCUUGAGAGCAUCUUCGGAUGCAGAGGCGGCAGCCUUCGGUGGCGCGAUAGCGCCAACGUUCUCAACUAUGACAAGCAAAACGCGUGCUCCGUUGAAUGGAGUUUAGCAUG [A26C C36G C116A U148G], the “polymerase ribozyme fitness (log ratio)” value is ≤ -4.2. The value for GGAUCUUCUCGAUCUAACAAAAAAUACAAAUCUGCCACAAAGCUUGAGAGCAUCUUCGGAGGCAGCGGCGGCAGCCUUCGGUGGCGUGAUAGCGCCAACGUUCUCAACUAUGACACGCAAAACGCGUGCUCCGUUGGAUGGAGUUUAUCAUG [G25U U61G A66C C87U A137G] was ≤ -4.2; that for GGAUCUUCUCGAUCUAACAAAAAAGCCAAAUCUGCCGCAAAGCUUGAGAGCAUCUUCGGUUGCAGAGGCGGCAGCCUUCGGUGGCGCGAAAGCGCCAACCUUCUCAACUAUGACACGCAAAACGCGUGCUCCGUUGAAUGAAGUUUAUUAUG [A26C A37G A60U U90A G100C G141A C149U] was ≤ -4.2; that for GGAUCUUCUCGAUCUAACAAAAAAGCCAAAUCUGCCACAAAGCUUGAGAGCCUCUUCGGAUGCAGAGGCGGCAGCCUUCGGUGGUGCGAUAGCGCCAACGUUCUCAACUAUGACACACAAAACGCGUGCUCCGUUGAAUGGGGUUUAUCAUG [A26C A52C C85U G117A A142G] was -3.88. Take GGAUCUUCUCGAUCUAACAAAAAAGCCAUAUCUGCCACAAAGCUUGAGAGCAUCUUCGGAUGCAGAGGCGGCAGCCUUCGGUGGCGCGAUAGCGCCAACGUUCUCAACUAUGACACGCAAAACGCUUGCUCCGUUGACUGGAGUUUAUCAUG [A26C A29U G126U A138C]: the “polymerase ribozyme fitness (log ratio)” value was ≤ -4.2. The value for GGAUCUUCUCGAUCUAACAAAAAAUACAAAUCUGCCACAAAGCUUGAGAGCAUCUUCUGAUGCAGAGGCGGCAGCCUUCGGUGGCGCGAUAGCGCCCACGUUCUCAACUAUGACACGCAAAACGCGUGCUCCGUUGAAUGGAGUUUAUCAUG [G25U G58U A97C] was -2.23. The value for GGAUCUUCUCGAUCUAACAAAAAAGCCAAAUCUGCCACAAAGCUUGAGAGCCUAUUCGGAUGCAGAGGCGGCAGCCUUCGGUGGCGCGAUAGCGCCAACGUUCUCAACUAUGAAACGCAAAACGCGUGGUCCGAUGAAUGGAGUUUAUCAUG [A26C A52C C54A C114A C129G U134A] was ≤ -4.2; that for GGAUCUUCUCGAUCUAACAAAAAAGCCAAAUCUGCCUCAAAGCUUGAGAGCAUCUUCGGAUGCAGAGGCGGCAGCCUUUGGUGGCGCGAUAGCGCCAACGUUCUCUACUAUGACACGCAAAACGCGUGCUCCGUUGAAUGGACUUAACCAUG [A26C A37U C79U A106U G143C U146A U148C] was ≤ -4.2.

Turning to GGAUCUUCUCGAUCUAACAAAAAAUACAAAUCUGCCACAAAGCUUGAGAGCAUCGUCGGAUGCAGAGGCGGCGGCCUUCGGUGGCGCGAUAGCGCCAACGUUCUCAACUAUGACACGCACAAUGCGUGCUCCGUUGAAUGGAGUUUAUCAUG [G25U U55G A73G A120C C123U], the “polymerase ribozyme fitness (log ratio)” value was -3.39. The value for GGAUCUUCUCGAUCUAACAAAAAAGCCAAAUCUGUCACAAAGCUUGAGAGCAUCUUCGGAUGCAGAGGCGGCAGCCUUCGGUGGCGCUAUAGCGCGAACGUUCUCAAUUAUGACACGCAAAACGCGUGCUCCGUUGAAUGGAAUUUAUCAUG [A26C C35U G88U C96G C108U G143A] was ≤ -4.2. The value for GGAUCUUCUCGAUCUAACAAAAAAUACAAAUCUGCCACAAAGCUUGAGAGCAUCUUCGGAUGCAGAGGCGGCAGCCUUCGGUGACGCGAUAGCGCCAACGUUCUCAACUAUGACACGCAAAACGCGUGCUCCGUUGAAUGGAGUUUAUCAUG [G25U G84A] was -3.07; that for GGAUCUUCUCGAUCUAACAAAAAAUACAAAUCUGCCACAAAGCUUGAGAGCAUCUACGGAUGCAGAGGCGGCAGCCUUCGGUGUCGCGAUAGCGAUAACGUUCUCAACUAUGACACGCCAAACGCGUGCUCCGUUGAAUGUAGUUUACAAUG [G25U U56A G84U C95A C96U A119C G141U U148C C149A] was ≤ -4.2. In the case of GGAUCUUCUCGAUCUAACAAAAAAGCCAAAUCUGCCACAAAGCUUGAGAGCCUCUUCGGAUGCAGAGGCGGCAGCCUUCGGUGGCGCGAUAGCGCCAACGUUCUCAACUAUGACACGCAAAACGCGUGCUCCGUUGAAUGGAGUUUAUCAUG [A26C A52C] it was -3.22. In the case of GGAUCUUCUCGAUCUAACAAAAAAGCCAAAUCUGCCACAAAGCUUGAGAGCAUCUUCGGAUGCAGAGGCGGCAGCCUUCGGUGGCGCGAUGGCGCCAACGUUCUCAACUAUGACACGCAAAACGCGUGCUCCGUUCAAUGGAGUUUAUCAUG [A26C A91G G136C], the “polymerase ribozyme fitness (log ratio)” value was ≤ -4.2. Regarding GGAUCUUCUCGAUCUAACAAAAAAGCCAAAUGUCCCACAAAGCAUGAGAGCAUCUUCGGAUGCAGAGGCGGCAGCCUUCGGUGGCGCGAUAGCGCCAACGUUCUCAGCUAUGACACGCAAAACGCGUGCUUCGUUGAACGGAGUCUAUCAUG [A26C C32G G34C U44A A107G C131U U139C U145C], the “polymerase ribozyme fitness (log ratio)” value is ≤ -4.2. As to GGAUCUUCUCGAUCUAACAAAAAAGCCAAAUCUGCCACAAAGCUUGAGAGCAUCUUCGGAUGCAGCGGCGGCAGCCUUCGCUCGCGCGAUAGCGCCAACGUUCUCAACUAUGACACGCAAAACGCGUGCUCCGUUGAAUGGAGUUUAUCAUG [A26C A66C G81C G83C], the “polymerase ribozyme fitness (log ratio)” value is -4.1. In the case of GGAUCUUCUCGAUCUAACAAAAAAGCCAAAUCUGCCACAAGGCUUGCGAGCAUCUUCGGAUGCAGAGGGGGCAGCCUUCGGUAGCGCGAUAGUGCCAACGUUCUCAACUAUGACACGCAAAACUCGUGCUCCGUUGAAUGGAGUUUAUCAUG [A26C A41G A47C C69G G83A C93U G124U], the “polymerase ribozyme fitness (log ratio)” value was ≤ -4.2.

On to GGAUCUUCUCGAUCUAACAAAAAAGCCAAAUCUGCCACAAAGCUUGAGAGCAUCUUCGGAUGCAGAGGCGGCAGCCUUCGGUGGCGCGAUAGCGCCAACGUUCUCAACUAUGACACGCAAAACGCGUGCUCCGUUGGAUGGAGAUUAUCAUG [A26C A137G U144A], for which the “polymerase ribozyme fitness (log ratio)” value was -4.13.

(Values after the RNAGym collection of RNA variant scans (doi:10.1073/pnas.2313332121).)
